Patent US10280218B2, “Antibodies binding to BMP4, and uses thereof” (ACADEMISCH MEDISCH CENTRUM, priority 2014, dated 2019)

T1: BMP2 (human)
T1 chain: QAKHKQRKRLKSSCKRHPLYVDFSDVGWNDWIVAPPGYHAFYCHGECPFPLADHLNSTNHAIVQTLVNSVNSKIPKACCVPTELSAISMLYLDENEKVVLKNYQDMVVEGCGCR

T2: BMP6 (Homo sapiens, UniProt P22004)
T2 sequence (P22004 375-513): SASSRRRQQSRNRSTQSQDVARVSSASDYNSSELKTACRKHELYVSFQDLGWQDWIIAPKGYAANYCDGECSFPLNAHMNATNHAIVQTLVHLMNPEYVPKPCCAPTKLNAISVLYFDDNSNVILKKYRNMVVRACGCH

T3: BMP7 (Homo sapiens, UniProt P18075)
T3 sequence (P18075 293-431): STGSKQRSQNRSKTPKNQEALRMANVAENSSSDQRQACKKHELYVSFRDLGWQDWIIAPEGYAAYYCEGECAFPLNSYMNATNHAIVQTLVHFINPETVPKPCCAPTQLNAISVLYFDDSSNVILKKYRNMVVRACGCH

T4: BMP2 (Homo sapiens, UniProt P12643)
T4 sequence (P12643 283-396): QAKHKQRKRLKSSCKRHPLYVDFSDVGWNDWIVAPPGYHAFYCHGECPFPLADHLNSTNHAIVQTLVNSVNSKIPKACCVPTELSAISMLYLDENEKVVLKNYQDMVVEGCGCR

T5: BMP5 (Homo sapiens, UniProt P22003)
T5 sequence (P22003 317-454): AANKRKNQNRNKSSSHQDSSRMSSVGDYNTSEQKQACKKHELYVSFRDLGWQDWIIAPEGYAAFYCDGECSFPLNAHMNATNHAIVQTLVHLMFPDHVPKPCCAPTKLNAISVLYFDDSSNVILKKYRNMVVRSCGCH


What was measured:
BMP2 [1] = molecular target: T1, BMP2; assay: SPR
BMP6 = molecular target: T2, BMP6; assay: BMP specificity of VHH antibodies (summary of binding and inhibition of BMP function); design: key: ●▪: Binding and inhibition of BMP function.; ●□: Binding, but no inhibition.; ○: No binding; settings: summary of SPR and functional experiments
From the text: (§1) Thus, we have generated several VH Hs that can be classified into four groups (Table 3): BMP4, BMP2/4, BMP2/4/5 and BMP2/4/5/6-specific.

BMP7 = molecular target: T3, BMP7; assay: as above; design: key: ●▪: Binding and inhibition of BMP function.; ●□: Binding, but no inhibition.; ○: No binding; settings: summary of SPR and functional experiments
From the text: as §1

BMP2 [2] = molecular target: T4, BMP2; assay: as above; design: key: ●▪: Binding and inhibition of BMP function.; ●□: Binding, but no inhibition.; ○: No binding; settings: summary of SPR and functional experiments
From the text: as §1

BMP5 = molecular target: T5, BMP5; assay: as above; design: key: ●▪: Binding and inhibition of BMP function.; ●□: Binding, but no inhibition.; ○: No binding; settings: summary of SPR and functional experiments
From the text: as §1

BMP2 [3] = molecular target: T4, BMP2; assay: Phosphorylation of SMAD1/5/8 in EPC2-hTERT cells (western blot); format: cell-based; settings: 100 ng/ml BMP2, 4 hours; indicated concentrations
Description: To detect phosphorylation of SMAD1/5/8 in vitro, EPC2-hTERTs were cultured in 24-well plates and activated with 100 ng/ml of BMP2, BMP4, BMP5, BMP6 or BMP7 (R&D Systems) for 4 hours with or without VHH at the indicated concentrations. After activation, each well was washed twice with ice-cold PBS and lysed with 100 μl M-PER lysis buffer (Sigma-Aldrich, MO, United States) containing Halt Protease and Phosphatase Inhibitor Cocktail (Thermo Scientific, Landsmeer, The Netherlands). Cell debris were pelleted and supernatant was collected. 15 μg of protein was then separated by 10% SDS-PAGE and transferred onto a PVDF membrane (Millipore, Amsterdam, The Netherlands). The blots were then blocked with 5% milk in Tris-buffered saline supplemented with 0.1% Tween-20 (TBST) for 1 hour at room temperature and washed in TBST before overnight incubation at 4° C. with antiphospho-SMAD1/5/8 (Cell Signalling), anti-βactin (Santa Cruz) or anti-GAPDH (Millipore) in 5% Bovine Serum Albumin (BSA). Blots were then washed with TBST and incubated for 1 hour at room temperature in 1:2000 horseradish peroxidase—conjugated secondary antibody in TBST. After a final wash with TBST, blots were incubated for 5 minutes in LumiGlow (BIOKE, Leiden, The Netherlands) and then chemiluminescence was detected using a Fuji LAS4000 illuminator (Fujifilm Medical Systems, Stamford, Conn.). Protein was quantitated with Image). […]

Row | Molecule | Kd (BMP2 [1]) [nM] | BMP6: binding and inhibition of BMP function (BMP6) | BMP7: binding and inhibition of BMP function (BMP7) | BMP2: binding and inhibition of BMP function (BMP2 [2]) | BMP5: binding and inhibition of BMP function (BMP5) | inhibition of BMP2 signaling (pSMAD1/5/8), dimer compared to monomer (BMP2 [3])
1 | hNoggin (protein) QHYLHIRPAPSDNLPLVDLIEHPDPIFDPKEKDLNETLLRSLLGGHYDPGFMATSPPEDRPGGGGGAAGGAEDLAELDQLLRQRPSGAMPSEIKGLEFSEGLAQGKKQRLSKKLRRKLQMWLWSQTFCPVLYAWNDLGSRFWPRYVKVGSCFSKRSCSVPEGMVCKPSKSVHLTVLRWRCQRRGGQRCGWIPIQYPIISECKCSC | 0.961 |  |  |  |  | 
2 | C8E7: E7 linked to C8, hetero-dimer VHH bihead (protein) EVQLVESGGGLVQAGGSLRLSCAASGRTFRINDMGWYRQAPGKSRDMVARITSGGNTNYADSVKGRFTISRDNAKNTVYLQMNSLKPEDTAVYYCNADGLRFDSTRYRPFDSWGQGTQVTVSSGGGGSGGGGSEVQLVESGGGLVQAGGSLRLSCAASGSIRGFVAMAWYRQAPGKQREWVATVTNGGTLYGDSVKGRFTGSRDNAKNTVYLQMNSLKPEDTAVYYCALRQIGASGYDYWGQGTQVTVSS |  | ●□ | ●□ | ●▪ | ●▪ | better at inhibiting both BMP2 and BMP4 as compared to the E7 monomer
